Data as given in EP4755917A1 (Fortvita Biologics Inc., dated 2026).

T1: Human OX40L (antigen of the ForteBio affinity assay) (human, UniProt P23510 51-183, limits assumed)
T1 construct: It may be the Acro His-tagged protein, but nothing ties it to that; also called CD252; CD134L
T1 sequence (looked up): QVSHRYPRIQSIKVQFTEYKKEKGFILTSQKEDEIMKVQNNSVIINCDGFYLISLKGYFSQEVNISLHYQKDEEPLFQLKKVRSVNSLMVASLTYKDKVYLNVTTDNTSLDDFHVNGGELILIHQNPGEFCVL


Target: T1, Human OX40L (antigen of the ForteBio …)
Experiment: ForteBio (biolayer interferometry)

Row | Binder | Kd
1 | HZ22 (antibody, human IgG4 S228P, kappa, V domains shown, Humanized antibody expressed in HEK293; also called humanized anti-OX40L antibody) VH: QVQLQESGPGLVKPSQTLSLTCTVSGYAVTGDYAWSWIRQPPGKRLEWIGYISSSAGTNYNPSLKSRVTISVDTSKNQFSLKLSSVTAADTAVYYCARDLYYGGRNQWYFDVWGQGTLVTVSS VL: DIQMTQSPSSLSASVGDRVTITCSATSSIIYMHWYQQKPGKAPKLLIYDTSKLPSGVPSRFSGSGSGTDFTLTISSLQPEDFATYYCHQRSSFPFTFGGGTKVEIKR | 0.379 nM
2 | HZ18 (antibody, human IgG4 S228P, kappa, V domains shown, Humanized antibody expressed in HEK293; also called humanized anti-OX40L antibody) VH: EVQLVQSGAEVKKPGATVKISCKVSGYSFTGYRIHWVQQAPGKGLEWMGYVDPYDDKTDYSQKSKGRVTITADTSTDTAYMELSSLRSEDTAVYYCAREGFAYWGQGTLVTVSS VL: DIQMTQSPSSLSASVGDRVTITCTSSSSLRYMHWYQQKPGKAPKLLIYNTFDLASGVPSRFSGSGSGTDFTLTISSLQPEDFATYYCQQRTTYPPTFGQGTKLEIKR | 0.307 nM
